Laboratory results taken from the DeepSol protein solubility set.

experiment: soluble on expression in E. coli; label from the status in PepcDB or PDB records

Sequence | soluble on expression in E. coli
RRSPPADAIPKSKKVKVSHRSHSTEPGLVLTLGQGDVGQLGLGENVMERKKPALVSIPEDVVQAEAGGMHTVCLSKSGQVYSFGCNDEGALGRDTSVEGSEMVPGKVELQEKVVQVSAGDSHTAALTDDGRVFLWGSFRDNNGVIGLLEPMKKSMVPVQVQLDVPVVKVASGNDHLVMLTADGDLYTLGCGEQGQLGRVPELFANRGGRQGLERLLVPKCVMLKSRGSRGHVRFQDAFCGAYFTFAISHEGHVYGFGLSNYHQLGTPGTESCFIPQNLTSFKNSTKSWVGFSGGQHHTVCMDSEGKAYSLGRAEYGRLGLGEGAEEKSIPTLISRLPAVSSVACGASVGYAVTKDGRVFAWGMGTNYQLGTGQDEDAWSPVEMMGKQLENRVVLSVSSGGQHTVLLVKDKEQS | soluble
MKKILLLNGPNLNMLGKREPHIYGSQTLSDIEQHLQQSAQAQGYELDYFQANGEESLINRIHQAFQNTDFIIINPGAFTHTSVAIRDALLAVSIPFIEVHLSNVHAREPFRHHSYLSDVAKGVICGLGAKGYDYALDFAISELQKIQLGEMMNG | soluble
MLNRIIEHMNAHHVEDMKGLLKKFGQVHHAENVAFKSVDSQGIVIGYNNNQTLRIEFNHEVKDPKDYKNATIELCQSVEKTHDLKGVEEEVKAFKEGFDSVCLATLHPNGHVVCSYAPLMSDGKQYYIYVSEVAEHFAGLKNNPHNVEVMFLEDESKAKSAILRKRLRYKTNTRFIERGAEFDKAFDSFIEKTGGAGGIKTIRAMQDFHLIALDFKEGRFVKGFGQAYDILGDKIAYVGDKGNPHNFAHKKLEHHHHHH | soluble
MRTHTGKIPDHFVPRISMTEEQRRVVFMLNSLLLDYPEEGFVDKLNAVEAQLDVLPLPVAAHVVEFLDAARVAGLRAMQEAYVETFDQRRRCSLFLTYYAVGDTRQRGTAILTFRQTLQQLGFESERDELPDHLCVVLEAAALADSSLFDAATQVLSAHRDGIEVLRAALDNLDSPYRYLIMSLCQALPEIDEETANSYMELIRSGPPAEMVGIGTPLPFPTSQPDIH | not soluble
DEMVRFNPKKMSLKKEQVIKIIKIGAPAGLQGVVFSVSNVCIQSAINGFGTKAIAGSSAALNYEYFTYYVINAFNQTTVTFTSQNYGAKKLERCKKA | not soluble
SLSRISPGNFSTNSYTSTIIKDVRFCLLLCRSLMEGWRITLLNEQEKTIFVDADACPVKDEILQTASEYEVQVLFVASFEHYQLSRSNEEKWKYVDPHKEAADLYIANHVKPGDIVVTQDIGLASLLLNRNVSVMSERGRLYKEDTIDFALEGRHFSGKQRRKGVYAKGPKKLNKEDRERFITLLQKILSNDEGILH | not soluble
MSLTTLKCVMQWTWRKTPERTIEVHKKNVNALKLLLIGSPGREQSYTPRDKRSNMHFLKKLGDFQDLEHTVDALKDWHTREKADAVLGLGDMLGLPGATTVRDERFQKKWHDIFIKDAGLDIPWLMTLGDADSVLSPSSQIRYHYSVQQKNWHMPNDYYTVNFKFGANLTLANGMFEETAFNATVIAINTWDLFVGNPVANNMASWTNKLWWLSEQLYQATQKNSSWIIVMGHHPMLSTGTEGEQARLQNIDDLSKSRRSRGLESFLINTLFMHYQVDAYVSGHDHLMEYNSITDVDRNVTVEGHHHHHH | not soluble
MKVLLIIPAYNEEENILRTIASIETFKQEVTHFQHELDYVVINDGSTDGTKQILEANQINAIHLVLNLGIGGAVQTGYKYALENEYDVAVQFDGDGQHDINSLPILLEPLAEGKCDFSIGSRFIPGNEASFQSTKMRRFGIRLLSFCIRMASGKTIYDVTSGYRAGNRKVIAFFAKRYPTNYPEPESIVHLIKKRFVIVERPVNMMERLGGVSSIRALASVKYMLEVGSAILIAAFMKEGDLEHHHHHH | soluble
NSMAEFQYNLNLEEEKKQLEIENLCFENMKKQMEFTRRARHDLKHHMKAVHTMAENNECKKITEYIETYLEHVSLKKPLVYCTNFTLNALIVYYVQQAEAHKIKLKLNIELPEETNVKEADLTVLFGNLLENAIDACDEVQENKRYINLKIYKPNSDSIVFYIENGFNGSIKKKNQQFLTTKANGNGIGIESVKYVVHKYNGDVNIKTDENKFIVSGVLLQPLDATK | not soluble
MGSDKIHHHHHHMLESTKQFLKKYNINDRVLKLYETAMNDIQNQFKILDDIREFNQLKVLNAFQEERISEAHFTNSSGYGYGDIGRDSLDAVYARVFNTESALVRPHFVNGTHALGAALFGNLRPGNTMLSVCGEPYDTLHDVIGITENSNMGSLKEFGINYKQVDLKEDGKPNLEEIEKVLKEDESITLVHIQRSTGYGWRRALLIEDIKSIVDCVKNIRKDIICFVDNCYGEFMDTKEPTDVGADLIAGSLIKNIGGGIAPTGGYLAGTKDCIEKTSYRLTVPGIGGECGSTFGVVRSMYQGLFLAPHISMEALKGAILCSRIMELAGFEVMPKYDEKRSDIIQSIKFNDKDKLIEFCKGIQTGSPIDSFVSCEPWDMPGYTDQVIMAAGAFIQGSSIELSADAPIREPYIAYLQGGLTFDHAKIGILIALSRIVK | not soluble
MGSDKIHHHHHHMGSTFMGIETGRRALTTNQWALQSTGNNIANAGTAGFSRQRLVMATTEQLSMAIGTGKMGQIGTGVRGEILERVRDVMLDKQYRDEATKTAYYGTKEAAFGRMEDIINEPSDTGLAKAFDGFWESLQTLSTNPQDSGARSVVRQKAETLTQTFNYMSKSLSQVKEDLKSEIDVSTKKVNDLFKKIHNINAEIHTVEPLGVLPNALYDERDRYMDELAQYVDFEKVSVDAEAITQGKLGNATKTAEGRIDILVKLPNGNKLRAVDSDVAQAGILSFTTNDKGLYTGFETNSQTISFDAAGGGFANGRIAGLLEMYGQIKNGQPTGEFVKMQSNLDEMATTFATAFNAAHAANFKKDKTNGTDQFFVATSGSISAATIAVGQDIKGSLDNIATSTDGNIGDSAGALKLAQMKTTSLLFATSVTTTTIGSFYQNVIGDMGVATDQVGRLGQSSAVLMDSAEQRRMSVSAVSIDEEMTMMIQYQHAYNAAARNITTVDEMLDKIINGMGIVGR | not soluble
GSPGISGGGGGILDMADDDVLFEDVYELCEVIGKGAFSVVRRCINRETGQQFAVKIVDVAKFTSSPGLSTEDLKREASICHMLKHPHIVELLETYSSDGMLYMVFEFMDGADLCFEIVKRADAGFVYSEAVASHYMRQILEALRYCHDNNIIHRDVKPENVLLASKENSAPVKLGDFGVAIQLGESGLVAGGRVGTPHFMAPEVVKREPYGKPVDVWGCGVILFILLSGCLPFYGTKERLFEGIIKGKYKMNPRQWSHISESAKDLVRRMLMLDPAERITVYEALNHPWLKERDRYAYKIHLPETVEQLRKFNARRKLKGAVLAAVSSHKFNSFYGDPPEELPDFSEDPTS | soluble
MAHHHHHHMLKACLPRHLRVTPLLRVWAAEEDDANAPPTTFKNVKPGRLLRLWRQIRQRAWVAFTWDEEWTSPGSEGYLHQQRLEQVCFAPLSAYGMVPGSYCDPLLYNTKNTSPFRWHVANTSSDIVGHWYMEADEIFRIKDWQPKNPDDPTEMFPRPPQQILKWDETVDEHGNRTFRYKYRYDFMGPTGMWEAYPRYPFSHLYLNGQDHHGRAEGYGFKQGHLLRCSEEEEEVLRRIMEEEDKEWEMVKRTEVVQEPWSYPGKIRPQDFNGAVERAKARFREQIKQGKETDPSEDPDYDLVQAGEYVEPRDGPRAEWRHLWTSNRAKGEPLPYQVTFNDGITFEDNEEKPPVHPASHYEVKPKEAPYKKYEEQDTKEADEKQKKLKEQWEKSFEESISRHEKTVGDGKTSGGNSDSRSSGSAADSGAKEPPK | not soluble
MSPAPELQIPTVTRQSDGTKIHEISGHKFKAVGLAQPTFCSFCSKFIYGVGKQGYKCLGCETVVHKRCHALITARCTFGPSSRAPVPAETTNLKTRRSRSASEEPPSNTHHFNKHFFTRPTFCDHCGSMLYGLTKQGVQCTDCHANVHFRCQEKVLRNCGIQCQ | not soluble
TKLTEQQTMNGLLRFGEYQRIIERRSFSLLDMKRFVTALGLESGGYRGEFSDLVNQGQPAIVPISYAGFKHFVVYKGYKDGRVYVADPALGNISFDEVRFKEIWENNTLFLIQVPE | not soluble
MTETEQTTAPIYPLKRNWTWWYLNDERNKSWEDRLKKVYTFNTVSEFWALYDAIRPPSGLNALCDYNVFRDDIQPMWEVPENSNGGRWLIVIDKGKTPEMVDAIWLEILMALVGEQFGKDMESICGLVCNVRGKGSKISVWTKDCNDDETNMRIGVVLKEKLMAASKDHSKPLFDVIRYEDHESCQKKTSSVVKAKLSLHSSDAPVAEKSAV | not soluble
